Results taken from patent US20240424127A1 (BRIGHT PEAK THERAPEUTICS, published 2024).
Numbering of substitutions follows the chain as printed. Names and notes keep the numbering of the source. Where two headings read alike, the source gives them in different places. Bridges are numbered along the chain shown (N, C = ends). [ ]: non-standard residue; d: D form. glutaryl‑PEG9‑azide = glutaryl-PEG9-azide group on the N-terminal amine; hSer = N[C@@H](CCO)C(=O)O; Nle = CCCC[C@H](N)C(=O)O

Assays:
[1] = target: T1, Recombinant Human IL-7R alpha/CD127 Fc Avi-tag Protein, CF (R&D Systems #AVI10317-050) (human, UniProt P16871 21-239); assay: BLI (Octet R8); CD127-Fc-Avi loaded on SAX2 sensor, IL-7 polypeptide as analyte
T1 construct: Bought construct; It was loaded on streptavidin (SAX/SAX2) biosensors; not shown: Fc and Avi-tag of a bought protein
T1 sequence (looked up): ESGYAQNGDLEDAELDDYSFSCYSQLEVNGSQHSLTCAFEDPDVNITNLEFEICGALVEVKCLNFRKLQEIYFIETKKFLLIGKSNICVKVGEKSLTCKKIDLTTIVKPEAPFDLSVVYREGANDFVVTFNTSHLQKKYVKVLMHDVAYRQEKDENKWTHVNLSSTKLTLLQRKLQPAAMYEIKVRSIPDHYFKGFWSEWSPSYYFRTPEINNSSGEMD

[2] = target: T1, Recombinant Human IL-7R alpha/CD127 Fc …; assay: as above; remark: listed apart in the source
[3] = target: T2, IL-7 receptor (IL-7Rα/γc heterodimer) on primary human T cells (human, UniProt P16871 21-459; P31785 23-369); assay: cell-based or functional assay
T2 sequence (looked up) 1: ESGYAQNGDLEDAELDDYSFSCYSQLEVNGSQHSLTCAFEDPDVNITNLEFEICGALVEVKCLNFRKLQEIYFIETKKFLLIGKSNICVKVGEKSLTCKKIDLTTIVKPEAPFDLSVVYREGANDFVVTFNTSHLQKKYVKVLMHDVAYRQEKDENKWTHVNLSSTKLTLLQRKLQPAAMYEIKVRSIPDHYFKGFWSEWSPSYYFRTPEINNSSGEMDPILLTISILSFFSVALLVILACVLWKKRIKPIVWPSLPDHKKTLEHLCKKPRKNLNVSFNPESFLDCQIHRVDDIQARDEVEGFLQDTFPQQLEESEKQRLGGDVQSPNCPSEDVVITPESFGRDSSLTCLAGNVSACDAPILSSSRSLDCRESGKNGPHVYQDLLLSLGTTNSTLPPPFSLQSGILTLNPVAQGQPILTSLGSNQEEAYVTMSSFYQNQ
T2 sequence (looked up) 2: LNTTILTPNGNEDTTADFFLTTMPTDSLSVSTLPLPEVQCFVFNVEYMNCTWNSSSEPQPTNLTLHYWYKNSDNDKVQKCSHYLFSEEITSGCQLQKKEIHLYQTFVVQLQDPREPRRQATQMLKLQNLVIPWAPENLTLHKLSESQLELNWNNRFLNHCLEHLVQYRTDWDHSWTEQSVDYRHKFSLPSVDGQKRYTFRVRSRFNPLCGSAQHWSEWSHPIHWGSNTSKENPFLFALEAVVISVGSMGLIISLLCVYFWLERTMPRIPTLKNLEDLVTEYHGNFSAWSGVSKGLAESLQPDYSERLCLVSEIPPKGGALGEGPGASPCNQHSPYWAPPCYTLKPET

[4] = target: T1, Recombinant Human IL-7R alpha/CD127 Fc …; assay: BLI (Octet R8); CD127-Fc-Avi loaded on SAX2 sensor, IL-7 polypeptide as analyte; remark: listed apart in the source
[5] = target: T1, Recombinant Human IL-7R alpha/CD127 Fc …; assay: as above; remark: listed apart in the source
[6] = target: T1, Recombinant Human IL-7R alpha/CD127 Fc …; assay: as above; remark: listed apart in the source
[7] = target: T3, Biotinylated Recombinant Human PD-1 (CD279)-Fc Chimera (carrier-free), Biolegend #789406 (human, UniProt Q15116 25-167, biotinylated); assay: ELISA: antibody coated on the plate, serial dilution of biotinylated human PD-1-Fc, streptavidin-HRP, OD 450 nm (x axis printed as 'Molecule (nM)')
T3 construct: Bought PD-1-Fc; also called h-PD1 Fc; not shown: Fc part of a bought chimera
T3 sequence (Q15116 25-167, change not shown): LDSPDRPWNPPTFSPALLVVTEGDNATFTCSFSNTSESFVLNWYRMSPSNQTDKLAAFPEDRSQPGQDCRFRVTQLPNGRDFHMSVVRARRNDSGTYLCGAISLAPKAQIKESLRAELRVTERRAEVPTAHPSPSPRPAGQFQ

[8] = target: T3, Biotinylated Recombinant Human PD-1 …; assay: Direct huPD1 ELISA: antibody coated on the plate, serial dilution of biotinylated human PD-1-Fc (x axis 'Biotin PD1 (nM)'), signal at 450 nm
Method: (§1) Each of these variant conjugates and unmodified antibodies are assayed by ELISA for their ability to bind to human PD-1 according to the following protocol.
(§2) Streptavidin-HRP is Sigma #RABHRP3. TMB solution is 3,3′,5,5′-Tetramethylbenzidine (Sigma T0440). Stop solution is Sigma #CL07STOP solution (0.5M H₂SO₄). Buffers are: Coating buffer is PBS. Wash buffer is PBS-0.02% Tween20. Blocking buffer is PBS-0.02% Tween20 1% BSA. Protein diluent is PBS-0.02% Tween20 0.1% BSA. STOP solution is 0.5M H₂SO₄. Procedure: Immunocytokines and parental antibody are coated overnight at 4° C. The ELISA plates are washed 4 times with 100 μl PBS-0.02% Tween20. and blocked with PBS-1% BSA. A serial dilution of h-PD1 Fc is prepared and plates are incubated for two hours at 37° C., with shaking (600 rpm). ELISA plates are washed and incubated with Streptavidin-HRP 30 min at RT, with shaking (600 rpm). ELISA plates are washed and incubated with ready-to-use TMB solution. Reaction is stopped and plates are read by OD450 on an Enspire plate reader.

[9] = target: T3, Biotinylated Recombinant Human PD-1 …; assay: ELISA: immunocytokine coated on the plate, serial dilution of biotinylated human PD-1-Fc, streptavidin-HRP, OD 450 nm (x axis printed as 'Molecule (nM)')
Method: as §1, §2

[10] = target: T1, Recombinant Human IL-7R alpha/CD127 Fc …; assay: BLI (Octet R8); CD127-Fc-Avi loaded on SAX2 sensor, immunocytokine as analyte
[11] = target: T3, Biotinylated Recombinant Human PD-1 …; assay: Direct huPD1 ELISA: immunocytokine coated on the plate, serial dilution of biotinylated human PD-1-Fc (x axis 'Biotin PD1 (nM)'), signal at 450 nm
Method: as §1, §2

[12] = target: T1, Recombinant Human IL-7R alpha/CD127 Fc …; assay: BLI (Octet R8); CD127-Fc-Avi loaded on SAX2 sensor, immunocytokine as analyte; remark: listed apart in the source

B1: CMP-108, synthetic IL-7 of SEQ ID NO: 3 with glutaryl-PEG9-azide at the N-terminus (ligand)
chain: {glutaryl‑PEG9‑azide}-DCDIEGKDGKQYESVL[Nle]VSIDQLLDS[Nle]KEIGSNCL[hSer]NEFNFFKRHICDANKEG[Nle]FLFRAARKLRQFLK[Nle]NSTGDF[hSer]LHLLKVSEGTTILLNCTGQVKGRKPAALGEAQPTKSL[hSer]ENKSLKEQKKLNDLCFLKRLLQEIKTCWNKIL[Nle]GTKEH-NH2
modifications: disulfide 34-129, 47-141, 2-92
notes: The suffix is not explained; also called synthetic IL-7, WT with an N-terminal conjugation handle
For B1, which Kd [1] is on record?
The Kd was 0.254 nM.

And the koff [1]?
Its koff is 0.00167 s⁻¹.

What about the kon [1] of the same binder?
The kon was 6.59e+06 M⁻¹ s⁻¹.

And the Kd [2]?
The Kd was 2.75 nM.

And the koff [2]?
The koff was 0.00901 s⁻¹.

And the kon [2]?
The kon was 3.28e+06 M⁻¹ s⁻¹.

What about the “EC50 pSTAT5, CD4 Memory” value [3] of the same binder?
The value was 6 pM.

And the “EC50 pSTAT5, CD4 Naive” value [3]?
Its value is 6 pM.

And the “EC50 pSTAT5, CD4 Treg” value [3]?
Its value is 20 pM.

What about the “EC50 pSTAT5, CD8 Memory” value [3] of the same binder?
Its value is 8 pM.

And the “EC50 pSTAT5, CD8 Naive” value [3]?
Its value is 8 pM.

B2: CMP-110, synthetic IL-7 G85N of SEQ ID NO: 7 with glutaryl-PEG9-azide at the N-terminus (ligand)
chain: {glutaryl‑PEG9‑azide}-DCDIEGKDGKQYESVL[Nle]VSIDQLLDS[Nle]KEIGSNCL[hSer]NEFNFFKRHICDANKEG[Nle]FLFRAARKLRQFLK[Nle]NSTGDF[hSer]LHLLKVSENTTILLNCTGQVKGRKPAALGEAQPTKSL[hSer]ENKSLKEQKKLNDLCFLKRLLQEIKTCWNKIL[Nle]GTKEH-NH2
modifications: disulfide 34-129, 47-141, 2-92
notes: The suffix is not explained; also called CMP-110-001
With B2 as the binder, how does the Kd [4] read?
Its Kd is 9.47 nM.

What about the koff [4] of the same binder?
Its koff is 0.0269 s⁻¹.

And the kon [4]?
The kon was 2.84e+06 M⁻¹ s⁻¹.

And the “EC50 pSTAT5, CD4 Memory” value [3]?
Its value is 30 pM.

What about the “EC50 pSTAT5, CD4 Naive” value [3] of the same binder?
The value was 30 pM.

What about the “EC50 pSTAT5, CD4 Treg” value [3] of the same binder?
Its value is 67 nM.

What about the “EC50 pSTAT5, CD8 Memory” value [3] of the same binder?
Its value is 80 pM.

What about the “EC50 pSTAT5, CD8 Naive” value [3] of the same binder?
The value was 50 pM.

What about the koff [5] of the same binder?
Its koff is 0.0225 s⁻¹.

What about the kon [5] of the same binder?
The kon was 2.51e+06 M⁻¹ s⁻¹.

B3: CMP-106, recombinant IL-7 V15W with His-tag (ligand)
chain: DCDIEGKDGKQYESWLMVSIDQLLDSMKEIGSNCLNNEFNFFKRHICDANKEGMFLFRAARKLRQFLKMNSTGDFDLHLLKVSEGTTILLNCTGQVKGRKPAALGEAQPTKSLEENKSLKEQKKLNDLCFLKRLLQEIKTCWNKILMGTKEHVDHHHHHH
notes: V15W is already in the entry, which also includes the C-terminal His-tag; also called IL-7 V15W (Recomb-HIS6)
For B3, which Kd [6] is on record?
The Kd was 66.3 nM.

And the koff [6]?
The koff was 0.0321 s⁻¹.

What about the kon [6] of the same binder?
Its kon is 485000 M⁻¹ s⁻¹.

And the “EC50 pSTAT5, CD4 Memory” value [3]?
The value was 0.93 nM.

And the “EC50 pSTAT5, CD4 Naive” value [3]?
The value was 0.814 nM.

And the “EC50 pSTAT5, CD4 Treg” value [3]?
Its value is 27.7 nM.

And the “EC50 pSTAT5, CD8 Memory” value [3]?
The value was 3.22 nM.

What about the “EC50 pSTAT5, CD8 Naive” value [3] of the same binder?
Its value is 1.28 nM.

B4: LZM-009 (antibody, V domains shown)
VH: QVQLVQSGAEVKKPGASVKVSCKASGYTFTSYYMYWVRQAPGQGLEWMGGVNPSNGGTNFNEKFKSRVTITADKSTSTAYMELSSLRSEDTAVYYCARRDYRYDMGFDYWGQGTTVTVSS
VL: EIVLTQSPATLSLSPGERATISCRASKGVSTSGYSYLHWYQQKPGQAPRLLIYLASYLESGVPARFSGSGSGTDFTLTISSLEPEDFATYYCQHSRELPLTFGTGTKVEIK
notes: It is a whole antibody with an Fc region (conjugated at K248)
For B4, which EC50 [7] is on record?
Its EC50 is 0.035 nM.

What about the EC50 [8] of the same binder?
The EC50 was 0.035 nM.

B5: CMP-041, LZM-009 conjugated to synthetic IL-7 (WT) CMP-108, DAR 1, at K248 (other)
VH: B4 VH
VL: B4 VL
chain: DCDIEGKDGKQYESVLXVSIDQLLDSXKEIGSNCLXNEFNFFKRHICDANKEGXFLFRAARKLRQFLKXNSTGDFXLHLLKVSEGTTILLNCTGQVKGRKPAALGEAQPTKSLXENKSLKEQKKLNDLCFLKRLLQEIKTCWNKILXGTKEH
modifications: not fully specified; norleucine (Nle) at 17, 27, 54, 69, 147; homoserine (Hse) at 36, 76, 114; N-terminal glutaryl-PEG9-azide reacted with the DBCO linker on the antibody; K248 (EU numbering) of the Fc region carries the linker to IL-7 (DAR 1)
notes: Immunocytokine (chemical conjugate, not a fusion)
B5 was tested. Which EC50 [9] did it give?
Its EC50 is 0.0348 nM.

And the koff [10]?
Its koff is 0.00979 s⁻¹.

And the kon [10]?
The kon was 2.95e+06 M⁻¹ s⁻¹.

What about the EC50 [11] of the same binder?
Its EC50 is 0.0348 nM.

B6: CMP-116, LZM-009 conjugated to synthetic IL-7 (V15W) CMP-107, DAR 1, at K248 (other)
VH: B4 VH
VL: B4 VL
chain: B5 chain with V15W
modifications: not fully specified; norleucine (Nle) at 17, 27, 54, 69, 147; homoserine (Hse) at 36, 76, 114; N-terminal glutaryl-PEG9-azide reacted with the DBCO linker on the antibody; K248 (EU numbering) of the Fc region carries the linker to IL-7 (DAR 1)
notes: Immunocytokine (chemical conjugate)
How did the koff [12] turn out when B6 was run?
Its koff is 0.0473 s⁻¹.

And the kon [12]?
Its kon is 2.9e+06 M⁻¹ s⁻¹.

What about the EC50 [11] of the same binder?
Its EC50 is 0.0341 nM.
